In doi:10.1101/2020.09.30.318261:

Molecular target: SARS-CoV prefusion stabilised spike ectodomain trimer (SARS-CoV) (UniProt P59594)
Experiment: cryo-EM structure

Substance: SARS-CoV prefusion stabilised spike ectodomain trimer (from UniProt P59594 14-1160) (domain or fragment)
- stoichiometry N: 3
